# Results: patent US20210054097A1 (Novo Nordisk, published 2021)
# Ends that are not written are not given here.
# T1: FX activation peptide 12-mer SVAQATSSSGEA (human)
# T1 peptide: SVAQATSSSGEA-biotin
# T2: FX activation peptide 12-mer VAQATSSSGEAP (human)
# T2 peptide: VAQATSSSGEAP-biotin
# T3: FX activation peptide 12-mer AQATSSSGEAPD (human)
# T3 peptide: AQATSSSGEAPD-biotin
# T4: FX activation peptide 12-mer ATSSSGEAPDSI (human)
# T4 peptide: ATSSSGEAPDSI-biotin
# T5: FX activation peptide 12-mer TSSSGEAPDSIT (human)
# T5 peptide: TSSSGEAPDSIT-biotin
# T6: FX activation peptide 12-mer SSSGEAPDSITW (human)
# T6 peptide: SSSGEAPDSITW-biotin
# T7: FX activation peptide 12-mer SSGEAPDSITWK (human)
# T7 peptide: SSGEAPDSITWK-biotin
# T8: FX activation peptide 12-mer SGEAPDSITWKP (human)
# T8 peptide: SGEAPDSITWKP-biotin
# T9: FX activation peptide 12-mer EAPDSITWKPYD (human)
# T9 peptide: EAPDSITWKPYD-biotin
# T10: FX activation peptide 12-mer APDSITWKPYDA (human)
# T10 peptide: APDSITWKPYDA-biotin
# T11: FX activation peptide 12-mer PDSITWKPYDAA (human)
# T11 peptide: PDSITWKPYDAA-biotin
# T12: FX activation peptide 12-mer DSITWKPYDAAD (human)
# T12 peptide: DSITWKPYDAAD-biotin
# T13: FX activation peptide 12-mer SITWKPYDAADL (human)
# T13 peptide: SITWKPYDAADL-biotin
# T14: FX activation peptide 12-mer ITWKPYDAADLD (human)
# T14 peptide: ITWKPYDAADLD-biotin
# T15: FX activation peptide 12-mer TWKPYDAADLDP (human)
# T15 peptide: TWKPYDAADLDP-biotin
# T16: FX activation peptide 12-mer WKPYDAADLDPT (human)
# T16 peptide: WKPYDAADLDPT-biotin
# T17: FX activation peptide 12-mer KPYDAADLDPTE (human)
# T17 peptide: KPYDAADLDPTE-biotin
# T18: FX activation peptide 12-mer PYDAADLDPTEN (human)
# T18 peptide: PYDAADLDPTEN-biotin
# T19: FX activation peptide 12-mer YDAADLDPTENP (human)
# T19 peptide: YDAADLDPTENP-biotin
# T20: FX activation peptide 12-mer AADLDPTENPFD (human)
# T20 peptide: AADLDPTENPFD-biotin
# T21: FX activation peptide 12-mer ADLDPTENPFDL (human)
# T21 peptide: ADLDPTENPFDL-biotin
# T22: FX activation peptide 12-mer DLDPTENPFDLL (human)
# T22 peptide: DLDPTENPFDLL-biotin
# T23: FX activation peptide 12-mer FDLLDFNQTQPE (human)
# T23 peptide: FDLLDFNQTQPE-biotin
# T24: FX activation peptide 12-mer DLLDFNQTQPER (human)
# T24 peptide: DLLDFNQTQPER-biotin
# T25: FX activation peptide 12-mer LLDFNQTQPERG (human)
# T25 peptide: LLDFNQTQPERG-biotin
# T26: FX activation peptide 12-mer LDFNQTQPERGD (human)
# T26 peptide: LDFNQTQPERGD-biotin
# T27: FX activation peptide 12-mer DFNQTQPERGDN (human)
# T27 peptide: DFNQTQPERGDN-biotin
# T28: FX activation peptide 12-mer NQTQPERGDNNL (human)
# T28 peptide: NQTQPERGDNNL-biotin
# T29: FX activation peptide 12-mer QTQPERGDNNLT (human)
# T29 peptide: QTQPERGDNNLT-biotin
# B1: Nb 701C06 (VHH)
# VHH: EVQLVESGGGVVQPGGSLRLSCAASGRTFSTYAMGWFRQAPGKEREFVAAISRRGGRTYYADSVKGRFTISRDNSKNTVYLQMNSLRPEDTALYYCAADATARDGLLDYWGQGTLVTVSS
# notes: monovalent Nanobody; not shown: C-terminal FLAG3 and HIS6 tag
# B2: Nb 701D07 (VHH)
# VHH: EVQLVESGGGVVQPGGSLRLSCAASGGTLSRYAMGWFRQAPGKEREFVAAITRRGSRTYYADSVKGRFTISRDNSKNTVYLQMNSLRPEDTALYYCAADLAPGDYALDYWGQGTLVTVSS
# notes: as for B1
# Target: T1, FX activation peptide 12-mer …
# Experiment: peptide ELISA
# Protocol: (§1) The peptides were C-terminally conjugated to biotin and 50 μL of 1 μg/mL peptide solution was used for immobilization in discrete wells of the microtiter plate which was pre-coated with 1 μg/mL streptavidin. Each well was washed with washing buffer (10 mM Tris, 150 mM NaCl, 2.5 mM CaCl₂, 0.05% Tween 20, pH 8.60) followed by addition of 50 μL of 2 μg/mL FLAG-tagged anti-FX Nanobody® or IgG antibody to be tested. After 1 hour non-bound Nanobody®/antibody was washed off using washing buffer.
# (§2) Bound anti-FX activation peptide ligand was detected by first binding a HRP-labelled secondary antibody (for FLAG-tagged Nanobodies: Anti-FLAG mAb M2-Peroxidase (HRP) (Sigma Aldrich, US), for antibody: Fcγ Fragment Specific Peroxidase AffiniPure F(ab′)₂ Fragment Goat Anti-Human IgG (Jackson ImmunoResearch Laboratories, Inc., US), or Peroxidase AffiniPure Goat Anti-Mouse IgG (Jackson ImmunoResearch Laboratories, Inc., US)) for 1 hour, and then adding 100 μL TMB-1 ELISA substrate (Kem-En-Tec Diagnostics, Denmark).
row,ELISA signal relative to background,Binder
1,0.92,B1
2,0.76,B2

# Target: T2, FX activation peptide 12-mer …
# Experiment: peptide ELISA
# Protocol: as §1, §2
row,ELISA signal relative to background,Binder
1,0.93,B1
2,0.84,B2

# Target: T3, FX activation peptide 12-mer …
# Experiment: peptide ELISA
# Protocol: as §1, §2
row,ELISA signal relative to background,Binder
1,0.91,B1
2,0.89,B2

# Target: T4, FX activation peptide 12-mer …
# Experiment: peptide ELISA
# Protocol: as §1, §2
row,ELISA signal relative to background,Binder
1,0.91,B1
2,0.86,B2

# Target: T5, FX activation peptide 12-mer …
# Experiment: peptide ELISA
# Protocol: as §1, §2
row,ELISA signal relative to background,Binder
1,0.87,B1
2,0.75,B2

# Target: T6, FX activation peptide 12-mer …
# Experiment: peptide ELISA
# Protocol: as §1, §2
row,ELISA signal relative to background,Binder
1,0.9,B1
2,0.73,B2

# Target: T7, FX activation peptide 12-mer …
# Experiment: peptide ELISA
# Protocol: as §1, §2
row,ELISA signal relative to background,Binder
1,0.89,B1
2,0.74,B2

# Target: T8, FX activation peptide 12-mer …
# Experiment: peptide ELISA
# Protocol: as §1, §2
row,ELISA signal relative to background,Binder
1,0.88,B1
2,0.78,B2

# Target: T9, FX activation peptide 12-mer …
# Experiment: peptide ELISA
# Protocol: as §1, §2
row,ELISA signal relative to background,Binder
1,0.89,B1
2,0.76,B2

# Target: T10, FX activation peptide 12-mer …
# Experiment: peptide ELISA
# Protocol: as §1, §2
row,ELISA signal relative to background,Binder
1,0.96,B1
2,0.9,B2

# Target: T11, FX activation peptide 12-mer …
# Experiment: peptide ELISA
# Protocol: as §1, §2
row,ELISA signal relative to background,Binder
1,0.92,B1
2,0.84,B2

# Target: T12, FX activation peptide 12-mer …
# Experiment: peptide ELISA
# Protocol: as §1, §2
row,ELISA signal relative to background,Binder
1,0.93,B1
2,0.89,B2

# Target: T13, FX activation peptide 12-mer …
# Experiment: peptide ELISA
# Protocol: as §1, §2
row,ELISA signal relative to background,Binder
1,0.94,B1
2,1.04,B2

# Target: T14, FX activation peptide 12-mer …
# Experiment: peptide ELISA
# Protocol: as §1, §2
row,ELISA signal relative to background,Binder
1,1.03,B1
2,0.89,B2

# Target: T15, FX activation peptide 12-mer …
# Experiment: peptide ELISA
# Protocol: as §1, §2
row,ELISA signal relative to background,Binder
1,1,B1
2,0.91,B2

# Target: T16, FX activation peptide 12-mer …
# Experiment: peptide ELISA
# Protocol: as §1, §2
row,ELISA signal relative to background,Binder
1,0.99,B1
2,0.85,B2

# Target: T17, FX activation peptide 12-mer …
# Experiment: peptide ELISA
# Protocol: as §1, §2
row,ELISA signal relative to background,Binder
1,0.9,B1
2,0.73,B2

# Target: T18, FX activation peptide 12-mer …
# Experiment: peptide ELISA
# Protocol: as §1, §2
row,ELISA signal relative to background,Binder
1,0.82,B1
2,0.73,B2

# Target: T19, FX activation peptide 12-mer …
# Experiment: peptide ELISA
# Protocol: as §1, §2
row,ELISA signal relative to background,Binder
1,0.85,B1
2,0.75,B2

# Target: T20, FX activation peptide 12-mer …
# Experiment: peptide ELISA
# Protocol: as §1, §2
row,ELISA signal relative to background,Binder
1,0.82,B1
2,0.69,B2

# Target: T21, FX activation peptide 12-mer …
# Experiment: peptide ELISA
# Protocol: as §1, §2
row,ELISA signal relative to background,Binder
1,0.87,B1
2,0.77,B2

# Target: T22, FX activation peptide 12-mer …
# Experiment: peptide ELISA
# Protocol: as §1, §2
row,ELISA signal relative to background,Binder
1,0.88,B1
2,0.74,B2

# Target: T23, FX activation peptide 12-mer …
# Experiment: peptide ELISA
# Protocol: as §1, §2
row,ELISA signal relative to background,Binder
1,0.99,B2

# Target: T24, FX activation peptide 12-mer …
# Experiment: peptide ELISA
# Protocol: as §1, §2
row,ELISA signal relative to background,Binder
1,1.13,B1
2,0.81,B2

# Target: T25, FX activation peptide 12-mer …
# Experiment: peptide ELISA
# Protocol: as §1, §2
row,ELISA signal relative to background,Binder
1,1.03,B1
2,0.8,B2

# Target: T26, FX activation peptide 12-mer …
# Experiment: peptide ELISA
# Protocol: as §1, §2
row,ELISA signal relative to background,Binder
1,0.93,B1
2,0.79,B2

# Target: T27, FX activation peptide 12-mer …
# Experiment: peptide ELISA
# Protocol: as §1, §2
row,ELISA signal relative to background,Binder
1,0.87,B1
2,0.75,B2

# Target: T28, FX activation peptide 12-mer …
# Experiment: peptide ELISA
# Protocol: as §1, §2
row,ELISA signal relative to background,Binder
1,0.85,B1
2,0.87,B2

# Target: T29, FX activation peptide 12-mer …
# Experiment: peptide ELISA
# Protocol: as §1, §2
row,Binder,ELISA signal relative to background
1,B1,0.93
2,B2,0.79

# Target: human activated Factor X (human, UniProt P00742 41-179; P00742 235-488)
# Experiment: cell-based or functional assay
# Sequence of human activated Factor X (P00742 41-179, chain 1 of 2): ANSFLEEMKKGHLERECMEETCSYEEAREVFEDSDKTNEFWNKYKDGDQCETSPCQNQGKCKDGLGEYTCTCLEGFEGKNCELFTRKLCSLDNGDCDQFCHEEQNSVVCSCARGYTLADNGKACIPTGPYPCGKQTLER
# Sequence of human activated Factor X (P00742 235-488, chain 2 of 2): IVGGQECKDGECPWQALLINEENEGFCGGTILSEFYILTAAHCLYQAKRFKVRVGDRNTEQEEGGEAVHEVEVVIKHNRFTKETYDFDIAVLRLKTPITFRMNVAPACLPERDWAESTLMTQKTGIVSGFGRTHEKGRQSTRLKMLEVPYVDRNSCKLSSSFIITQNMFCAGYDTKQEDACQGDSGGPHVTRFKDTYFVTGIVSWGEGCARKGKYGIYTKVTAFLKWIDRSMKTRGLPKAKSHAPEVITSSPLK
row,"FXa amidolytic activity (relative to free FXa, fold) [fold]",Binder
1,1.06,B1
2,1.05,B2
